Numbering of substitutions follows the chain as printed.

In general, Kd refers to the constant that tells how readily two partners part at equilibrium. For orientation: koff means a measure of how fast the partners let go of each other. What is called kon is the rate constant with which the complex forms. The term EC50 denotes the midpoint of the concentration-response curve.

In assay [1] the target is T1, purified recombinant human CD40 protein (human, UniProt P25942 21-193).
T1 construct: also called recombinant CD40
T1 sequence (P25942 21-193 limits assumed): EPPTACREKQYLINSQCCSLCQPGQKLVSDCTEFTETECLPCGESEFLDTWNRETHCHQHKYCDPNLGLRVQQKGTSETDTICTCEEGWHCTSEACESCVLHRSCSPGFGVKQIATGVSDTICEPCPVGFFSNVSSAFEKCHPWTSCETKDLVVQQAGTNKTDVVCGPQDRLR
Put plainly: ELISA on coated recombinant human CD40; chimeric antibody supernatant. As for the experimental part:
ELISA plate was coated with purified recombinant CD40 protein in coating buffer at lug/ml overnight. After washed for 3 times, the plate was blocked with 1% BSA, and then cell culture supernatants containing rabbit-human chimeric CD40 antibodies were added to the plate. For detection of the antibody binding to CD40 protein, goat anti-human Fc polyclonal antibody conjugated to alkaline phosphatase was used.
Background: ELISA stands for enzyme-linked immunosorbent assay.

Assay [2] concerns the target T1, purified recombinant human CD40 protein. Put plainly: Octet (BLI), recombinant CD40. Background: In BLI a coated tip is dipped into the sample, and binding shifts an interference pattern.
Assay [3] has as its target CD40 on HEKBlue CD40L reporter cells (UniProt P25942 21-277, limits assumed). Put plainly: cell-based or functional assay.
The target in assay [4] is T2, cell surface human CD40 on HEK-CD40 cells (human, UniProt P25942 21-277).
T2 construct: whole, on cells; also called cell surface CD40
T2 sequence (P25942 21-277): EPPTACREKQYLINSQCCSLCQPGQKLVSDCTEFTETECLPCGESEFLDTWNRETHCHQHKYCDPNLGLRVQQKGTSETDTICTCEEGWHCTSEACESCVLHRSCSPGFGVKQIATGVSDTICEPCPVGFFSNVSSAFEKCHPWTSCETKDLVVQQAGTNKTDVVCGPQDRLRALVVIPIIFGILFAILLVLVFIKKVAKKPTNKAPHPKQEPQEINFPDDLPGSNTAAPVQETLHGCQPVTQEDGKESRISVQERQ
In words: flow cytometry, titration on HEK-CD40 cells, CD40 MFI, anti-human IgG secondary antibody. As to the method: HEK-CD40 were collected and plated at 10⁵ cells per well in 96-well round bottom plate in FACS buffer. Serial dilutions of antibodies (Control IgG1, CP870,893, APX005m and 3B5) in 100 ul were incubated with the HEK-CD40 cells for 60 min at 4° C. Cells were washed 3 times with 200 ul FACS buffer. Cell-bound antibodies were detected using an APC-conjugated secondary antibody specific to human IgG heavy and light chain. After incubating 30 min with secondary antibody, HEK-CD40 cells were washed 3 times with 200 ul FACS buffer and resuspended in 200 ul FACS with 1 ug/ml DAPI. Flow cytometric analyses were performed using Attune N×T flow cytometer (ThermoFisher Scientific, Waltham, Mass.). After gating on FCS-SSC parameters to exclude debris and selectively gating DAPI negative cells on DAPI-SSC parameters to exclude dead cells, the geometric mean fluorescence intensity (MFI) of antibodies was determined using FlowJo v10 (BD Bioscience, San Jose, Calif.). Dose-response curves were generated and EC50s calculated using GraphPad Prism 8 (GraphPad Software, San Diego, Calif.).
(In general: Flow cytometry measures light scatter and fluorescence of single cells or particles in a stream.)

Sequence of CD40 on HEKBlue CD40L reporter cells (P25942 21-277 limits assumed): as the sequence (P25942 21-277) above

B1: 198 rabbit-human chimeric anti-CD40 antibody (antibody, V domains shown)
VH: QSVKESEGGLFKPTDTLTLTCTVSGFSLGSYTMAWVRQAPGNGLEYIGTIDSSGSADYASWAQSRSTITRNTNLNTVTLKMTSLTAADTATYFCARPTNYEYTWALNIWGPGTLVTVSS
VL: DVVMTQTPASVSEPVGGTVTIKCQASQTIYSYLAWYQQKPGQPPKLLIYGASKLASGVPSRFSGSRSGTEFTLTISDLECADAATYYCQCTGYDSAYVYNDFGGGTEVVVK
notes: tested as cell culture supernatant
Regarding B1, in assay [1], the OD405 was 1.8 OD405.

B2: 3E12 rabbit-human chimeric anti-CD40 antibody (antibody, V domains shown)
VH: QSVKESEGGLFKPTDTLTLTCTVSGFSFSNYRMIWVRQAPGNGLEWIGVIDRNDNTYYATWAKSRSTITRNTNLNTVTLKMTSLTAADTATYFCARDTDYTTGGIWGPGTLVTVSS
VL: DIVMTQTPASVSAAVGGTVTIKCQASQNIGDNLAWHQQKPGQPPKLLIYGASTLASGVPSRFKGSGSRTEYTLTISDLECADAATYYCQSNYYSTSSSYYNSFGGGTEVVVK
notes: as for B1
In the case of B2, the OD405 in assay [1] turned out to be 1.39 OD405.

B3: 4B7 rabbit-human chimeric anti-CD40 antibody (antibody, V domains shown)
VH: B2 VH with S27T, F28L, M33V, V49G, N53S, D54A, N55V, T56A, T60S, T102S
VL: DIVMTQTPSSVSAAVGGTVTIKCQASQNIGGNLAWYQQKPGQPPKLLIYGSSTLESGVPSRFSGSGSGTEYTLTISDLQCADAATYYCQSNYWSRSSSYVNSFGGGTEVVVK
notes: as for B1
Take B3: the OD405 in assay [1] came to 1.72 OD405.

B4: 3B5 rabbit-human chimeric anti-CD40 antibody (antibody, V domains shown)
VH: QSVEESGGRLITPGTPLTLTCTVSGFSLSTYAVSWVRQAPGKGLEWIGIIDSGGGTAYASWVKGRFTISKTSTTVDLKITSPTTEDTATYFCARGVTFFGLWGPGTLVTVSS
VL: DIVMTQTPASVEAAVGGTVTIKCQASQSISNYLSWYQQKPGQPPKLLIYRASDLASGVPSRFKGSGSGTEFTLTISDLECADAATYYCQAYYYSGGGSYDYAFGGGTEVVVK
notes: as for B1
With B4, the OD405 in assay [1] came out at 1.48 OD405.

B5: 4A7 rabbit-human chimeric anti-CD40 antibody (antibody, V domains shown)
VH: QSVEESGGRLVTPGTPLTLTCTVSGFSLSTYAMSWVRQAPGKGLEWIGIIDGGGFAVYANWAKGRFTISKASTTVDLKLPSPTTEDTATYFCARGVTFFNLWGPGTLVTVSS
VL: B4 VL with G17D, N31S, Y32A, S34A, D53T, A55E, A90S, G95S
notes: as for B1
B5: the OD405 in assay [1] came to 1.65 OD405.

B6: 196 rabbit-human chimeric anti-CD40 antibody (antibody, V domains shown)
VH: QSVEESGGRLVTPGTPLTLTCTVSGFSLSAYAIHWVRQAPGKGLEYIGIIDAGGNIVYATWALGRFTISKTSTTVDLKITSPTTEDTATYFCGRGLSSYSNSAMDLWGPGTLVTVSS
VL: DVVMTQTPASVSEPVGGTVTMKCQASQNIYTYLAWYQQKPGRPPKLLIYQASTLASGVSSRFSGSGSGTEFTLTISDLECADAATYYCQSTAGNAYNAFGGGTEVVVK
notes: as for B1
For B6, the OD405 in assay [1] is 1.92 OD405.

B7: 197 rabbit-human chimeric anti-CD40 antibody (antibody, V domains shown)
VH: QEQLKESGGGLVTPGTALTLTCTASGSDISSYAMNWVRQAPGKGLEYIGVITSSGTIYYANWATGRFTISKASSTTVDLKTTRLTTEDTATYFCARGITGAVTTGLSLWGPGTLVTVSS
VL: DVVMTQTPPSVSEPVGGTVTIKCQASQNIYNNLAWYQQTPGQPPKLLGYAASNLASGVSSRFSGSGYGTEFTLTISDLECADAATYYCLGGYYGNNVGNTFGGGTEVVVK
notes: as for B1
On to B7, for which the OD405 in assay [1] came out at 2.01 OD405.

B8: 2E3 rabbit-human chimeric anti-CD40 antibody (antibody, V domains shown)
VH: QSVEESGGRLVTPGTPLTLTCTVSGFSLSTYAMSWVRQAPGKGLEWIGIIDGSSFTVYANWAKGRFTISKTSTTVDLKMTSLTASDTATYFCARGATFFGLWGPGTLVTVSS
VL: DVVMTQTPASVSAAVGGTVTIKCQASQSISGVLAWYQQKPGQPPKLLIYRAADLASGVPSRFKGSGSGTEFTLTINDLECDDAATYYCQSYYYSNSGSYSYAFGGGTEVVVK
notes: as for B1
For the molecule B8, in assay [1], the OD405 worked out at 1.62 OD405.

B9: 3B5, humanized anti-CD40 mAb, IgG1 isotype (antibody, V domains shown)
VH: EVQLVESGGGLIQPGGSLRLSCAVSGFSLSTYAVSWVRQAPGKGLEWVGIIDSGGGTAYASWVKGRFTISRDNSKNTLYLQMNSLRAEDTAVYYCARGVTFFGLWGQGTLVTVSS
VL: DIVMTQSPSTLSASVGDRVTITCQASQSISNYLSWYQQKPGKAPKLLIYRASDLASGVPSRFSGSGSGTEFTLTISSLQPDDFATYYCQAYYYSGGGSYDYAFGGGTKVEIK
notes: also called HZD_3B5; 3B5 antibody
In the case of B9, in assay [2], the Kd is less than 1 pM, the koff was less than 1e-07 s⁻¹ and the kon stood at 1.06e+06 M⁻¹ s⁻¹. For the same molecule, the “IC50 (read off the curve)” value in assay [3] is roughly 0.06 µg/mL. This molecule showed a concentration for a half-maximal effect (EC50) in assay [4] of 0.69 µg/mL.

These data come from patent US20220348674A1 (APOLLOMICS, published 2022).
